Test results taken from the supplement of paper PMC7125110.
± gives the standard error. Fewer inactive variants are shown than the library holds.

B1: glmS ribozyme (parent)
chain: AUAAAAGCGCCAGAACUACAGAAAUGUAGUUGACGAGGAGGAGGUUUAUCGAAUUUUCGGCGGAUGCCUCCAAA

Columns and labels:
Conditions in all cases: with glucosamine-6-phosphate
glucosamine-6-phosphate [1] = variants of: B1; test: self-cleavage kobs at 40 uM GlcN6P; higher = faster cleavage; RNA array
Method in brief: (§1)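 Barcoded ribozyme variants were transcribed in situ on sequenced MiSeq chips by E. coli RNA polymerase. At 37 °C, a hybridised Cy3 probe tracked them while glucosamine-6-phosphate (40 μM to 10 mM) in HEPES/KCl/Mg(OAc)2 buffer flowed in and tiles were imaged over ~14 h. Per-tile medians of signals normalised to baseline and to non-cleaving reference variants were fit to one- or two-exponential decays, giving kobs. kcat and KM came from weighted Michaelis–Menten fits across concentrations.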

glucosamine-6-phosphate [2] = variants of: B1; test: self-cleavage kobs at 640 uM GlcN6P; higher = faster cleavage; RNA array
Method in brief: as §1

glucosamine-6-phosphate [3] = variants of: B1; test: self-cleavage kobs at 2500 uM GlcN6P; higher = faster cleavage; RNA array
Method in brief: as §1

glucosamine-6-phosphate [4] = variants of: B1; test: self-cleavage kobs at 10000 uM GlcN6P; higher = faster cleavage; RNA array
Method in brief: as §1

glucosamine-6-phosphate [5] = variants of: B1; test: self-cleavage kobs at 160 uM GlcN6P; higher = faster cleavage; RNA array
Method in brief: as §1

Variant	self-cleavage kobs at 40 uM GlcN6P (glucosamine-6-phosphate [1]) [s⁻¹]	self-cleavage kobs at 640 uM GlcN6P (glucosamine-6-phosphate [2]) [s⁻¹]	self-cleavage kobs at 2500 uM GlcN6P (glucosamine-6-phosphate [3]) [s⁻¹]	self-cleavage kobs at 10000 uM GlcN6P (glucosamine-6-phosphate [4]) [s⁻¹]	self-cleavage kobs at 160 uM GlcN6P (glucosamine-6-phosphate [5]) [s⁻¹]
G63A G66U	< 1e-05	< 1e-05	< 1e-05	< 1e-05	–
G7A C10A C16G G29A A42U G51U C61U	–	–	< 1e-05	< 1e-05	< 1e-05
G63A U65G G66U	< 1e-05	–	< 1e-05	< 1e-05	–
A6U A42C A53C U65G	–	< 1e-05	< 1e-05	–	< 1e-05
G7U C61U	–	< 1e-05	–	< 1e-05	< 1e-05
C61U A64U	< 1e-05	< 1e-05	< 1e-05	< 1e-05	< 1e-05
C8G C16U G35U C50G C70U	–	0.000187 ± 5e-05	8.04e-05 ± 1.8e-05	–	0.000117 ± 2.9e-05
G9A C34A	–	< 1e-05	< 1e-05	< 1e-05	< 1e-05
C8A G51U	–	< 1e-05	–	–	< 1e-05
A64C G66C	< 1e-05	< 1e-05	–	–	< 1e-05
G7C C61U	–	< 1e-05	< 1e-05	–	< 1e-05
G7C C61A	–	< 1e-05	–	–	< 1e-05
C68G C71G	2.7e-05 ± 1.3e-05	8.75e-05 ± 2.3e-05	9.89e-05 ± 1.7e-05	–	7.77e-05 ± 1.5e-05
G9U A12C G40A G41U G43U G63U	–	–	–	–	< 1e-05
G7U G66A	–	–	–	< 1e-05	< 1e-05
G7A G41A C70G	–	–	–	–	< 1e-05
G7U U46A C50G G60A U65G U69A	–	–	–	–	0.000502 ± 0.00021
U2C U56C	–	0.000865 ± 0.00022	0.00287 ± 0.00077	–	0.000197 ± 5.4e-05
C8U C10A G62A	–	< 1e-05	–	–	< 1e-05
C8U C71G	–	< 1e-05	< 1e-05	–	< 1e-05
C8G A12C A36C G59A	–	–	< 1e-05	–	< 1e-05
G7U G35A G59C	–	–	< 1e-05	–	< 1e-05
G9U A12G U54G	–	–	–	–	< 1e-05
C8A A36U C50G A52U	–	< 1e-05	< 1e-05	–	< 1e-05
G9A A52G	–	< 1e-05	< 1e-05	–	< 1e-05

Variant	self-cleavage kobs at 40 uM GlcN6P (glucosamine-6-phosphate [1]) [s⁻¹]	self-cleavage kobs at 640 uM GlcN6P (glucosamine-6-phosphate [2]) [s⁻¹]	self-cleavage kobs at 2500 uM GlcN6P (glucosamine-6-phosphate [3]) [s⁻¹]	self-cleavage kobs at 10000 uM GlcN6P (glucosamine-6-phosphate [4]) [s⁻¹]	self-cleavage kobs at 160 uM GlcN6P (glucosamine-6-phosphate [5]) [s⁻¹]
G9U A12G	–	< 1e-05	< 1e-05	< 1e-05	< 1e-05
A6G G29C C70G	–	–	< 1e-05	< 1e-05	< 1e-05
C8G A14G C34G	–	< 1e-05	< 1e-05	–	< 1e-05
G7C C68G	–	< 1e-05	< 1e-05	< 1e-05	< 1e-05
G7C C70G	–	< 1e-05	< 1e-05	–	< 1e-05
C61U C67G C68G	4.73e-05 ± 1.6e-05	–	–	–	–
A6G C50U U54C	–	< 1e-05	< 1e-05	–	< 1e-05
C8U A42G G63A	–	< 1e-05	< 1e-05	–	< 1e-05
C8A G44C C68A C71G	–	–	–	–	< 1e-05
G7A C8U C16A G43C G44U G63U C68U	–	< 1e-05	< 1e-05	< 1e-05	< 1e-05
A6U G38C A64U G66U	–	< 1e-05	< 1e-05	–	< 1e-05
C8G G9U A12U C16G	–	< 1e-05	–	–	< 1e-05
C8U G40U A48U U65A	–	< 1e-05	< 1e-05	–	< 1e-05
A6U U30G G62U	–	< 1e-05	–	–	< 1e-05
C8U A12C A42U A53U C61A	–	< 1e-05	< 1e-05	–	< 1e-05
G7U A12U U56G	–	< 1e-05	–	–	< 1e-05
C8U U55A	–	< 1e-05	< 1e-05	–	< 1e-05
C8G G51C C68G	–	< 1e-05	–	–	< 1e-05
G7A G37A A39G G40U U49A G59A	–	–	< 1e-05	–	< 1e-05
A6C G40A A52G C67U	–	< 1e-05	< 1e-05	–	< 1e-05
G7U G51U	–	< 1e-05	< 1e-05	< 1e-05	< 1e-05
A6G C11A A14U G40A	–	–	–	–	< 1e-05
G9A C10A	–	< 1e-05	< 1e-05	< 1e-05	< 1e-05
G7C A48C C50U	–	–	–	< 1e-05	< 1e-05
G7A G32U G43C	–	< 1e-05	–	–	< 1e-05

Variant	self-cleavage kobs at 40 uM GlcN6P (glucosamine-6-phosphate [1]) [s⁻¹]	self-cleavage kobs at 640 uM GlcN6P (glucosamine-6-phosphate [2]) [s⁻¹]	self-cleavage kobs at 2500 uM GlcN6P (glucosamine-6-phosphate [3]) [s⁻¹]	self-cleavage kobs at 10000 uM GlcN6P (glucosamine-6-phosphate [4]) [s⁻¹]	self-cleavage kobs at 160 uM GlcN6P (glucosamine-6-phosphate [5]) [s⁻¹]
C8U C16U U54A C61A C71U	–	< 1e-05	–	–	< 1e-05
G9C G29U C50G C70G	–	0.000131 ± 4.2e-05	0.000253 ± 9.9e-05	–	0.000652 ± 0.00019
G9U A14U U47A	–	< 1e-05	< 1e-05	–	< 1e-05
G9A U46G	–	< 1e-05	–	< 1e-05	< 1e-05
G66A C71U	0.000673 ± 0.00012	0.00361 ± 0.0008	–	0.0215 ± 0.007	–
C8U U56G	–	< 1e-05	< 1e-05	–	< 1e-05
A6C U30G	–	–	–	–	< 1e-05
C61U C68G C70A	< 1e-05	–	–	–	–
G9A A52U C58U C70G	–	< 1e-05	–	–	< 1e-05
G9A G37A A42U	–	< 1e-05	–	–	< 1e-05
C8A G35C C61G	–	< 1e-05	< 1e-05	–	< 1e-05
G7U G38A G40A G62A	–	< 1e-05	< 1e-05	–	< 1e-05
G7U A15U G51U C61U C67G	–	< 1e-05	–	–	< 1e-05
A6G G32U C50G U57G C61A G66U	–	–	0.000553 ± 9.8e-05	9.54e-05 ± 1.9e-05	0.000258 ± 4.1e-05
C8U G35A U49C A64C C71A	–	–	–	–	< 1e-05
G7A A33U G44U	–	–	< 1e-05	–	< 1e-05
G66C C68A	< 1e-05	0.000128 ± 5.4e-05	5.93e-05 ± 2.7e-05	–	–
A6G G41A A42U A64U	–	–	< 1e-05	–	< 1e-05
A6G G40U U54A	–	< 1e-05	–	–	< 1e-05
A6C G66C	–	< 1e-05	–	–	< 1e-05
A6C G66U	–	< 1e-05	< 1e-05	–	< 1e-05
C8A G40C G41C G63U	–	< 1e-05	–	–	< 1e-05
G9C C11A C16U G35C U54C G62A	–	< 1e-05	–	–	< 1e-05
C8G G37U G51U	–	< 1e-05	–	–	< 1e-05
G7A G40A	–	< 1e-05	–	–	< 1e-05

Variant	self-cleavage kobs at 40 uM GlcN6P (glucosamine-6-phosphate [1]) [s⁻¹]	self-cleavage kobs at 640 uM GlcN6P (glucosamine-6-phosphate [2]) [s⁻¹]	self-cleavage kobs at 2500 uM GlcN6P (glucosamine-6-phosphate [3]) [s⁻¹]	self-cleavage kobs at 10000 uM GlcN6P (glucosamine-6-phosphate [4]) [s⁻¹]	self-cleavage kobs at 160 uM GlcN6P (glucosamine-6-phosphate [5]) [s⁻¹]
U65C C68U C71U	< 1e-05	–	–	–	–
G66A U69A	8.7e-05 ± 1.7e-05	0.0005 ± 9.3e-05	0.000595 ± 0.00011	0.00178 ± 0.00037	0.000185 ± 3.8e-05
C8A C16A U47C C58G	–	< 1e-05	–	–	< 1e-05
A6C A39C C70U	–	–	< 1e-05	–	< 1e-05
G7C C8G U30C	–	< 1e-05	–	–	< 1e-05
G9U A12C C67U	–	< 1e-05	< 1e-05	< 1e-05	< 1e-05
G7U G13U A15C	–	< 1e-05	< 1e-05	–	< 1e-05
A64U C71A	< 1e-05	–	–	3.22e-05 ± 1.4e-05	–
G9C G44U	–	< 1e-05	< 1e-05	< 1e-05	< 1e-05
G9A A48U	–	< 1e-05	< 1e-05	–	< 1e-05
A6U A14C	–	–	–	4.13e-05 ± 7.6e-06	< 1e-05
C61A A64C C71A	< 1e-05	–	–	< 1e-05	–
G63U C67G	< 1e-05	–	–	< 1e-05	< 1e-05
G63A U65C	< 1e-05	< 1e-05	–	< 1e-05	–
C8U G35A G43U	–	< 1e-05	< 1e-05	–	< 1e-05
G7A U49A	–	< 1e-05	< 1e-05	< 1e-05	< 1e-05
G9C G38A C70U	–	< 1e-05	< 1e-05	–	< 1e-05
G62U G63U	< 1e-05	–	< 1e-05	< 1e-05	< 1e-05
G7A U57A	–	< 1e-05	< 1e-05	< 1e-05	< 1e-05
G7A G35U	–	< 1e-05	–	< 1e-05	< 1e-05
C8U A33G C34G A36U U65C	–	–	< 1e-05	–	< 1e-05
G7U A12G G32U	–	–	–	–	< 1e-05
